Experimental findings from patent US20050256058A1 are described below.

Square brackets hold non-standard residues; d marks the D form. * marks the point of attachment. Hydrocinnamoyl = O=C(CCc1ccccc1)*; CH:CH‑COOEt = CCOC(=O)/C=C/*; AOrn = not defined here; Cbz = O=C(OCc1ccccc1)*

Holding throughout (test): cell-based or functional assay
The target of assay [1] is T1, schistosome legumain SmAE (Schistosoma mansoni asparaginyl endopeptidase) (Schistosoma mansoni), P09841.
T1 chain: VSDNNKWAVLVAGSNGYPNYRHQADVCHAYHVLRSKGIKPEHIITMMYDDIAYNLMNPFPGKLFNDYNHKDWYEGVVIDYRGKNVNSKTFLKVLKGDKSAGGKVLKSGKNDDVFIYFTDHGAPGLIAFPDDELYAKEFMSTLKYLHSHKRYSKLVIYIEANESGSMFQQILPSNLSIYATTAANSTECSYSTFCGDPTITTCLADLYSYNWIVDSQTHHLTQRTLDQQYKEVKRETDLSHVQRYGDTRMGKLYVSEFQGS

The next assay addresses T2, Clostripain, P09870.
T2 chain: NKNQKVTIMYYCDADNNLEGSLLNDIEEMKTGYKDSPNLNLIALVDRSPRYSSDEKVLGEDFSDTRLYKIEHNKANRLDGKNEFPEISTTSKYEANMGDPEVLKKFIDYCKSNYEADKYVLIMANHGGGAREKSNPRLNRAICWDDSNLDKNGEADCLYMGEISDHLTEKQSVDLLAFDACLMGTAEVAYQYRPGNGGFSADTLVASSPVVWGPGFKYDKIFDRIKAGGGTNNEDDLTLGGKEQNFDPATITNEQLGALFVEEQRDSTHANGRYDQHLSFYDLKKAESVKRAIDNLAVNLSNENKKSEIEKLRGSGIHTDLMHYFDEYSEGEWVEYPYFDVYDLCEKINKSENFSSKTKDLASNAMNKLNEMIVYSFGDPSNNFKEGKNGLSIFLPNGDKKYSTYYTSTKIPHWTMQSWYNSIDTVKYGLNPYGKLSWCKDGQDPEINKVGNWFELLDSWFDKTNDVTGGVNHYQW

A further assay concerns the target Gingipain R.
The target in another assay is Gingipain K.

For orientation: IC50 means the concentration that inhibits the measured activity by half. Read a low IC50 as greater potency. AAN (modifications not checked) [Cbz-Ala-Ala-AAsn-CH═CH-CON(CH3)CH2CH2Ph] came in with an IC50 in assay [1] of 600 nM.

Turning to LR (modifications not checked) [PhPr-Leu-AArg-CH═CH-CONHCH2Ph], the k2 stood at 287000 M⁻¹ s⁻¹ with Clostripain, P09870 and 555000 M⁻¹ s⁻¹ with Gingipain R. As to Hydrocinnamoyl-Leu-[AOrn]-{CH:CH‑CON(CH2Ph)2} (reading uncertain) [PhPr-Leu-AOrn-CH═CH-CON(CH2Ph)2], the k2 in the assay with Clostripain, P09870 came to 541 M⁻¹ s⁻¹; with Gingipain K, 61600 M⁻¹ s⁻¹; with Gingipain R it was 541 M⁻¹ s⁻¹. AAN (modifications not checked) [Cbz-Ala-Ala-AAsn-CH═CH-CONH-Bzl-4-F] registered an IC50 in assay [1] of 800 nM. In assay [1], Cbz-Ala-Ala-[AAsn]-{CH:CH‑CONHCH2CH2Ph} [Cbz-Ala-Ala-AAsn-CH═CH-CONHCH2CH2Ph] registered an IC50 of 600 nM. As for LK (modifications not checked) [PhPr-Leu-ALys-CH═CH-CONHCH2Ph], the k2 is 1050 M⁻¹ s⁻¹ in the assay with Clostripain, P09870; 236000 M⁻¹ s⁻¹ in the assay with Gingipain K; 20 M⁻¹ s⁻¹ in the assay with Gingipain R. Regarding LK (modifications not checked) [PhPr-Leu-ALys-CH═CH-CON(Bzl)-p-CH2C6H4F], the k2 with Clostripain, P09870 worked out at 13800 M⁻¹ s⁻¹; with Gingipain K it was 801000 M⁻¹ s⁻¹; with Gingipain R, 75 M⁻¹ s⁻¹. The molecule AAN (modifications not checked) [Cbz-Ala-Ala-AAsn-CH═CH-CO-tetrahydroquinoline] yielded an IC50 in assay [1] of 70 nM. Still for that read-out and setting: with AAN (modifications not checked) [Cbz-Ala-Ala-AAsn-CH═CH-CONHPh] the figure was 700 nM. As to LK (modifications not checked) [PhPr-Leu-ALys-CH═CH-CON(Me)CH2Ph], the k2 was determined as 6000 M⁻¹ s⁻¹ with Clostripain, P09870; 1.36e+06 M⁻¹ s⁻¹ in the assay with Gingipain K; 79 M⁻¹ s⁻¹ with Gingipain R. Molecule AAN (modifications not checked) [Cbz-Ala-Ala-AAsn-CH═CH-3-Py] registered an IC50 in assay [1] of more than 2000 nM. Consider Hydrocinnamoyl-Ala-[AOrn]-{CH:CH‑COOEt} (reading uncertain) [PhPr-Ala-AOrn-CH═CH-COOEt], for which the k2 came to 632000 M⁻¹ s⁻¹ in the assay with Gingipain K and 18 M⁻¹ s⁻¹ with Gingipain R. As to LK (modifications not checked) [PhPr-Leu-ALys-CH═CH-CON(Bzl)CH2-2-naphthyl], the k2 was determined as 17500 M⁻¹ s⁻¹ with Clostripain, P09870; 811000 M⁻¹ s⁻¹ with Gingipain K; 98 M⁻¹ s⁻¹ in the assay with Gingipain R. For LK (modifications not checked) [PhPr-Leu-ALys-CH═CH-CON(4H-quinoline)], in that order: 326 M⁻¹ s⁻¹, 252000 M⁻¹ s⁻¹ and 73 M⁻¹ s⁻¹. AAN (modifications not checked) [Biotinyl-Ala-Ala-AAsn-CH═CH-COOEt] yielded an IC50 in assay [1] of 10 nM. As for Hydrocinnamoyl-Leu-[AOrn]-{CH:CH‑CONHCH2Ph} (reading uncertain) [PhPr-Leu-AOrn-CH═CH-CONHCH2Ph], the k2 was 24700 M⁻¹ s⁻¹ with Gingipain K and 71 M⁻¹ s⁻¹ in the assay with Gingipain R. Consider AAN (modifications not checked) [Cbz-Ala-Ala-AAsn-CH═CH-CO-Pip], for which the IC50 in assay [1] came to 1000 nM. Take AAN (modifications not checked) [Cbz-Ala-Ala-AAsn-CH═CH-COOBzl]: the IC50 in assay [1] was found to be 38 nM. In turn, AAN (modifications not checked) [Cbz-Ala-Ala-AAsn-CH═CH-CO-(4-Ph-Py)] displayed an IC50 in assay [1] of 750 nM. Take LK (modifications not checked) [PhPr-Leu-ALys-CH═CH-COOCH2Ph]: the k2 came to 20500 M⁻¹ s⁻¹ in the assay with Clostripain, P09870; 2.51e+06 M⁻¹ s⁻¹ with Gingipain K; 632 M⁻¹ s⁻¹ in the assay with Gingipain R. Take Cbz-Ala-Ala-[AAsn]-{CH:CH‑COOEt} [Cbz-Ala-Ala-AAsn-CH═CH-COOEt]: the IC50 in assay [1] was 31 nM. Same read-out and setting: with AAN (modifications not checked) [Cbz-Ala-Ala-AAsn-CH═CH-CON(Bzl)Ph] the figure was 70 nM; with AAN (modifications not checked) [Cbz-Ala-Ala-AAsn-CH═CH-CON(nBu)2], 550 nM. As for LR (modifications not checked) [PhPr-Leu-AArg-CH═CH-COOEt], the k2 with Clostripain, P09870 was 69600 M⁻¹ s⁻¹; with Gingipain K, 1580 M⁻¹ s⁻¹. As for AAN (modifications not checked) [Cbz-Ala-Ala-AAsn-CH═CH-CON(CH2-2-furyl)2], in assay [1], the IC50 was determined as 900 nM. With LK (modifications not checked) [PhPr-Leu-ALys-CH═CH-COOEt], the k2 in the assay with Clostripain, P09870 was found to be 40800 M⁻¹ s⁻¹; with Gingipain K it was 3.28e+06 M⁻¹ s⁻¹; with Gingipain R, 289 M⁻¹ s⁻¹. On to LK (modifications not checked) [PhPr-Leu-ALys-CH═CH-CON(CH2-1-naphthyl2], for which the k2 with Clostripain, P09870 was 2250 M⁻¹ s⁻¹; with Gingipain K, 1.89e+06 M⁻¹ s⁻¹; with Gingipain R it was 214 M⁻¹ s⁻¹. In assay [1], AAN (modifications not checked) [Cbz-Ala-Ala-AAsn-CH═CH-2-furyl] had an IC50 of more than 2000 nM. As for Hydrocinnamoyl-Leu-[AOrn]-{CH:CH‑COOEt} (reading uncertain; also: printed as PhPr-Leu-AOrn-CH═CH-COOEt) [PhPr-Leu-AOrn-CH═CH-COOEt], the k2 with Clostripain, P09870 turned out to be 788 M⁻¹ s⁻¹; with Gingipain K it was 927000 M⁻¹ s⁻¹; with Gingipain R it was 32 M⁻¹ s⁻¹. As for AAN (modifications not checked) [Cbz-Ala-Ala-AAsn-CH═CH-CON(Bzl-4-F)Bzl], the IC50 in assay [1] worked out at 60 nM.

In turn, Cbz-Ala-Ala-[AAsn]-{CH:CH‑CO‑indoline} [Cbz-Ala-Ala-AAsn-CH═CH-CO-indoline] registered a half-maximal inhibitory concentration (IC50) in assay [1] of 70 nM. Consider AAN (modifications not checked) [Cbz-Ala-Ala-AAsn-CH═CH-CON(CH3)Ph], for which, in assay [1], the IC50 is 60 nM. On the same count and under the same terms, with AAN (modifications not checked) [Cbz-Ala-Ala-AAsn-CH═CH-CONHBzl] the figure was 1000 nM; with AAN (modifications not checked) [Cbz-Ala-Ala-AAsn-CH═CH-CO-isoindoline], 300 nM. On the same count and under the same terms, with AAN (modifications not checked) [Cbz-Ala-Ala-AAsn-CH═CH-CO-MePhe-N(CH3)CH2CH2Ph] the figure was 750 nM. Same read-out and setting: with Cbz-Ala-Ala-[AAsn]-{CH:CH‑CON(Bzl)‑1‑CH2‑Napth} [Cbz-Ala-Ala-AAsn-CH═CH-CON(Bzl)-1-CH2-Napth] the figure was 62 nM. In the case of AAN (modifications not checked) [Cbz-Ala-Ala-AAsn-CH═CH-CON(Bzl-4-OMe)Bzl], the IC50 in assay [1] was determined as 90 nM. The same measure, in the same setting: with Cbz-Ala-Ala-[AAsn]-{CH:CH‑CON(Bzl)‑2‑CH2‑Napth} [Cbz-Ala-Ala-AAsn-CH═CH-CON(Bzl)-2-CH2-Napth] the figure was 70 nM.

Turning to Cbz-Ala-Ala-[AAsn]-{CH:CH‑CON(Bzl)2} [Cbz-Ala-Ala-AAsn-CH═CH-CON(Bzl)2], the IC50 in assay [1] was found to be 45 nM.

In the case of LK (modifications not checked) [PhPr-Leu-ALys-CH═CH-CON(CH2Ph)2], the k2 was 20000 M⁻¹ s⁻¹ in the assay with Clostripain, P09870; 2.13e+06 M⁻¹ s⁻¹ in the assay with Gingipain K; 65 M⁻¹ s⁻¹ in the assay with Gingipain R. For AAN (modifications not checked) [Cbz-Ala-Ala-AAsn-CH═CH-CO-tetrahydroisoquinoline], the IC50 in assay [1] is 200 nM. Turning to LK (modifications not checked) [PhPr-Leu-ALys-CH═CH-CON(Me)CH2-1-naphthyl], the k2 is 639 M⁻¹ s⁻¹ with Clostripain, P09870; 975000 M⁻¹ s⁻¹ with Gingipain K; 576 M⁻¹ s⁻¹ with Gingipain R.

Take LR (modifications not checked) [PhPr-Leu-AArg-CH═CH-CON(CH2Ph)2]: the k2 in the assay with Clostripain, P09870 was found to be 474000 M⁻¹ s⁻¹; with Gingipain R, 804000 M⁻¹ s⁻¹. The molecule Cbz-Ala-Ala-[AAsn]-{CH:CH‑CON(CH3)Bzl} [Cbz-Ala-Ala-AAsn-CH═CH-CON(CH3)Bzl] had an IC50 in assay [1] of 55 nM.
